Test results from publication PMC10221034 (2023).

B1: wild-type rTpiA (recombinant Streptococcus pneumoniae D39 triosephosphate isomerase) [Streptococcus pneumoniae D39] / human plasma plasminogen [human] (parent complex)
chain 1: SRKPFIAGNWKMNKNPEEAKAFVEAVASKLPSSDLVEAGIAAPALDLTTVLAVAKGSNLKVAAQNCYFENAGAFTGETSPQVLKEIGTDYVVIGHSERRDYFHETDEDINKKAKAIFANGMLPIICCGESLETYEAGKAAEFVGAQVSAALAGLTAEQVAASVIAYEPIWAIGTGKSASQDDAQKMCKVVRDVVAADFGQEVADKVRVQYGGSVKPENVASYMACPDVDGALVGGASLEAESFLALLDFVK
chain 2: EPLDDYVNTQGASLFSVTKKQLGAGSIEECAAKCEEDEEFTCRAFQYHSKEQQCVIMAENRKSSIIIRMRDVVLFEKKVYLSECKTGNGKNYRGTMSKTKNGITCQKWSSTSPHRPRFSPATHPSEGLEENYCRNPDNDPQGPWCYTTDPEKRYDYCDILECEEECMHCSGENYDGKISKTMSGLECQAWDSQSPHAHGYIPSKFPNKNLKKNYCRNPDRELRPWCFTTDPNKRWELCDIPRCTTPPPSSGPTYQCLKGTGENYRGNVAVTVSGHTCQHWSAQTPHTHNRTPENFPCKNLDENYCRNPDGKRAPWCHTTNSQVRWEYCKIPSCDSSPVSTEQLAPTAPPELTPVVQDCYHGDGQSYRGTSSTTTTGKKCQSWSSMTPHRHQKTPENYPNAGLTMNYCRNPDADKGPWCFTTDPSVRWEYCNLKKCSGTEASVVAPPPVVLLPDVETPSEEDCMFGNGKGYRGKRATTVTGTPCQDWAAQEPHRHSIFTPETNPRAGLEKNYCRNPDGDVGGPWCYTTNPRKLYDYCDVPQCAAPSFDCGKPQVEPKKCPGRVVGGCVAHPHSWPWQVSLRTRFGMHFCGGTLISPEWVLTAAHCLEKSPRPSSYKVILGAHQEVNLEPHVQEIEVSRLFLEPTRKDIALLKLSSPAVITDKVIPACLPSPNYVVADRTECFITGWGETQGTFGAGLLKEAQLPVIENKVCNRYEFLNGRVQSTELCAGHLAGGTDSCQGDSGGPLVCFEKDKYILQGVTSWGLGCARPNKPGVYVRVSRFVTWIEGVMRNN

Variants of: B1
Test: ELISA; rTpiA protein-coated microtiter plate; measured 60 min after substrate addition; n = 9; parent: 1.4; read off a plot

Question: For chain 1 K112A, which response is on record?
Answer: The response was roughly 1.2 A405.

Question: How did the response turn out when chain 1 K29A was run?
Answer: Its response is roughly 1.2 A405.

Question: With chain 1 K205A as the variant, how does the response read?
Answer: The response was roughly 1.3 A405.

Question: chain 1 K55A was tested. Which response did it give?
Answer: Its response is roughly 1.3 A405.

Question: How did the response turn out when chain 1 K251A was run?
Answer: Its response is roughly 0.14 A405.

Question: chain 1 K14A was tested. Which response did it give?
Answer: Its response is roughly 1.3 A405.

Question: chain 1 K111A was tested. Which response did it give?
Answer: The response was roughly 1.3 A405.

Question: Which response does the source give for chain 1 K188A here?
Answer: The response was roughly 1.3 A405.

Question: For chain 1 K60A, which response is on record?
Answer: Its response is roughly 1.3 A405.

Question: How did the response turn out when chain 1 K84A was run?
Answer: The response was roughly 1.2 A405.

Question: With chain 1 K20A as the variant, how does the response read?
Answer: Its response is roughly 1.3 A405.

Question: With chain 1 K176A as the variant, how does the response read?
Answer: Its response is roughly 1.3 A405.

Question: For chain 1 K185A, which response is on record?
Answer: The response was roughly 1.3 A405.

Question: Which response does the source give for chain 1 K111A, chain 1 K112A, chain 1 K114A here?
Answer: Its response is roughly 0.86 A405.

Question: How did the response turn out when chain 1 K3A was run?
Answer: The response was roughly 1.3 A405.

Question: chain 1 K11A was tested. Which response did it give?
Answer: The response was roughly 1.3 A405.

Question: For chain 1 K138A, which response is on record?
Answer: Its response is roughly 1.3 A405.

Question: With chain 1 K114A as the variant, how does the response read?
Answer: The response was roughly 1.3 A405.

Question: Which response does the source give for chain 1 K215A here?
Answer: Its response is roughly 1.4 A405.
